Laboratory results reported in US20240189424A1 (published 2024).

T1: Soluble monomeric B7H6-His (UniProt Q68D85 25-262, limits assumed)
T1 construct: extracellular domain; also called monovalent B7H6; soluble B7H6; not shown: C-terminal Avi-tag and 6xHis-tag
T1 sequence (looked up): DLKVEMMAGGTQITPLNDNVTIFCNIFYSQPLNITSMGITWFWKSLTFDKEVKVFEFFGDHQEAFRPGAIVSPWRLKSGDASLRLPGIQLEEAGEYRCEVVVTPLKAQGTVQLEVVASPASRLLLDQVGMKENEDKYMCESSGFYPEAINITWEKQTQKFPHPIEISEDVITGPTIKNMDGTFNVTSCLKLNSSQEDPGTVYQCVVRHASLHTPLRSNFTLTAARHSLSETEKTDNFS


What was measured:
[1] = target: T1, Soluble monomeric B7H6-His; test: BLI (Octet RED96), Fc fusion on Protein A tips, monovalent B7H6-His in solution, steady state affinity
Description: (§1) BioLayer Interferometry (BLI) measurements of affinity KD were obtained using the ForteBio Octet RED96 system as previously described. Briefly, Protein A-coated biosensor tips were “activated” by incubation with 41 nM TZ47-Fc, NKp30-Fc, or CC3-Fc for 10 min to load tips. Binding to soluble B7H6-His were assessed by allowing TZ47-Fc, NKp30-Fc, or CC3-Fc coated tips to equilibrate in PBS+0.1% Tween-20 (PBST) for 5 min, followed by association steps in 200 μL of each antigen at concentrations ranging from 0 to 3000 nM for 10 min, and dissociation steps in 200 µL of PBST for 5 min. Data was analyzed using Octet® System Data Analysis software.
(§2) Clone CC5, which contains only the consensus S82P mutation, along with CC3, which had two additional amino acid substitutions, were chosen for further characterization. To define binding affinities and kinetics with improved resolution, CC3, CC5, NKp30, and TZ47 sequences were expressed recombinantly as Fc fusion proteins. Affinity to monovalent B7H6 was determined by Biolayer Interferometry (BLI). […] The fast on and off rate profile of NKp30 was maintained in the variants despite the increase in overall affinity.

[2] = target: T1, Soluble monomeric B7H6-His; test: BLI, Fc fusion on Protein A tips, monovalent B7H6-His
Description: as §1, §2

| Molecule | Kd [1] [nM] | fold improvement of KD compared to NKp30 [2] [fold] |
| --- | --- | --- |
| CC3-Fc (from UniProt O14931 19-135) (Fc fusion) | 680 | 2 |
| CC5-Fc (Fc fusion, also called clone CC5; not shown: mouse IgG2a Fc domain) LWVSQPPEIRTLEGSSAFLPCSFNASQGRLAIGSVTWFRDEVVPGKEVRNGTPEFRGRLAPLAPSRFLHDHQAELHIRDVRGHDASIYVCRVEVLGLGVGTGNGTRLVVEKEHPQLG | 580 | 2 |
| NKp30-Fc (Fc fusion, Extracellular domain of NKp30 fused to a mouse IgG2a Fc domain, expressed in expi293 HEK cells, bivalent; also called native NKp30; wildtype NKp30; not shown: mouse IgG2a Fc domain) LWVSQPPEIRTLEGSSAFLPCSFNASQGRLAIGSVTWFRDEVVPGKEVRNGTPEFRGRLAPLASSRFLHDHQAELHIRDVRGHDASIYVCRVEVLGLGVGTGNGTRLVVEKEHPQLG | 1300 |  |
